Kd data for 1 molecule are collected here from doi:10.1101/2025.06.02.656870.

This assay deals with chicken IgY (chicken). Kind of assay: BLI; Octet SAX biosensors, as described previously (ref. 10); kinetic 1:1 model, global fits over multiple Fab concentrations. (In general: BLI is a label-free optical method that tracks binding on a fibre tip over time.)
Chain of chicken IgY (chicken) (main, as listed by the source): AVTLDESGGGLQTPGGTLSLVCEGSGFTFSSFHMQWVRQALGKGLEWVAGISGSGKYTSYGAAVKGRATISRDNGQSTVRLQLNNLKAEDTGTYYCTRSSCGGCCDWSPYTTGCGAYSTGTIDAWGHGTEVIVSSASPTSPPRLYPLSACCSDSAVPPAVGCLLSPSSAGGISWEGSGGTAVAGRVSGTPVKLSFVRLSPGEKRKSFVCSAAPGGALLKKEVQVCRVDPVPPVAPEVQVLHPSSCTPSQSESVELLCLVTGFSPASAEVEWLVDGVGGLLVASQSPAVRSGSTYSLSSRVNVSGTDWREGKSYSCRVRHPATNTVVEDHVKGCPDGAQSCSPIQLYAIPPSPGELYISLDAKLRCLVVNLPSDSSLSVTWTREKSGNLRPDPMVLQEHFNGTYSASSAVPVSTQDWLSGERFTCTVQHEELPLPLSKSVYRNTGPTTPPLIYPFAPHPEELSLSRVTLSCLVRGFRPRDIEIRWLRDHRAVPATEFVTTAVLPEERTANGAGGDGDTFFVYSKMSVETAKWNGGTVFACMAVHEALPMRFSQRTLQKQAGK

B1: 2.1^hi Fab (D28HA, K49HR, S64HG, A40LG, Y42LF, A52LS, Q105LH, N108LY) (Fab, V domains shown)
VH: EVQLQESGPSLVKPSQTLSLTCSVTGASITSGYWNWIRKFPGNRLEYMGYISYSGGTYYNPSLKSRISITRDTSKNQYYLQLNSVTTEDTATYYCARDFDVWGAGTTVTVSS
VL: DIVMTQSQKFMSTSVGDRVSVTCKASQNVGTNVGWFQQKPGQSPKSLIYSASYRYSGVPDRFTGSGSGTDFTLTISNVQSEDLAEYFCHQYYSYPLTFGSGTKLEIK
The term Kd denotes the free concentration of one partner at which half of the binding sites on the other are occupied at equilibrium, for simple one-to-one binding. A lower Kd goes with higher affinity. In the case of B1, the Kd came to 0.062 nM. In other words, the picomolar range.
